Experiments:
[1] = molecular target: T1, human IL-2R beta (CD122) (human) (UniProt P14784); assay: BLI (Octet)
T1 sequence (looked up): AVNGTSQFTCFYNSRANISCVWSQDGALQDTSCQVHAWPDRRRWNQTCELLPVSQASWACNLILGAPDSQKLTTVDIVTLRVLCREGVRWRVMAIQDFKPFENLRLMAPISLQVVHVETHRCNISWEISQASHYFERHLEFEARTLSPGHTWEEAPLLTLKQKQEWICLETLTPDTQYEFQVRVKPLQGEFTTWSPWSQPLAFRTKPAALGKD

[2] = molecular target: human IL-13Rα2 (human) (UniProt Q14627); assay: SPR on immobilized ligands with receptors as flow analytes using MCK, top trace marked 250 nM
human IL-13Rα2 (human), sequence (Q14627 27-343 limits assumed): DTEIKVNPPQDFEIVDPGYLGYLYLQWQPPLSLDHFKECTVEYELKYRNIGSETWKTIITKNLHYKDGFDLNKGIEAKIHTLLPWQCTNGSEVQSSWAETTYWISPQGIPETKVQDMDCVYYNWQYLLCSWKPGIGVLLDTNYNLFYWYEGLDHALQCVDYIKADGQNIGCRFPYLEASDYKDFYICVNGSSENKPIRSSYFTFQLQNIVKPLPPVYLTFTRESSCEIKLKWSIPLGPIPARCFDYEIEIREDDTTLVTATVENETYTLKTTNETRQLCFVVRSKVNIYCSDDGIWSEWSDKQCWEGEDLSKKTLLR

[3] = molecular target: human IL-13Rα1 (human) (UniProt P78552); assay: SPR on immobilized ligands with receptors as flow analytes using MCK, top trace marked 1000 nM
human IL-13Rα1 (human), sequence (P78552 22-343 limits assumed): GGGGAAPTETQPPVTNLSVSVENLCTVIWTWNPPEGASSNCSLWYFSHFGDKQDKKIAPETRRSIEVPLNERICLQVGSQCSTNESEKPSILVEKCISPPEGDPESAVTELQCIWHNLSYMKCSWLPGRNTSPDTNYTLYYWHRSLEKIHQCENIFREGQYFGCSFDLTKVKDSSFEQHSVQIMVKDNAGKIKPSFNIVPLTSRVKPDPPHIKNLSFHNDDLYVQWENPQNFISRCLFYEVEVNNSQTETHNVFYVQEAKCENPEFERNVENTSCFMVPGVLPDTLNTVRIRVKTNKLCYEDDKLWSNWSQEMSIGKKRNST

[4] = molecular target: human IL-13Rα1 (human) (UniProt P78552); assay: SPR, construct captured on anti-human IgG (Fc) antibody on a CM5 chip, human receptor as analyte
[5] = molecular target: human IL-13Rα2 (human) (UniProt Q14627); assay: as above

| Kd [1] [nM] | Kd [2] [nM] | Kd [3] [nM] | Kd [4] [nM] | Kd [5] [nM] | Substance |
| --- | --- | --- | --- | --- | --- |
| 11 |  |  |  |  | MDNA11 (MDNA109FEAA-Albumin) |
|  | 0.69 | 202 | 237 | 0.6 | Fc-IL13 (wild-type IL-13 with Fc tag, comparator; format not stated) (Fc fusion) |
| 7 |  |  |  |  | VivoTag800-MDNA11 |
